“Also recorded” adds a separate entry of the source.
Tests used:
C. difficile R20291 [1] = assay: Lytic activity of LHD on R20291 in different pH conditions; type: cell-based, Clostridium difficile
Experimental: Prior to tests, bacterial optical density at 600 nm (OD600) was adjusted to approximately 0.8-1.0. Protein LHD was added into the cell re-suspension with the final concentration of 200 μg/ml. The drop in OD600 at 37° C. was measured once per 20 minutes for 60 min. Bacterial re-suspension with sterilized water was also set as a control. Data are present as “Mean±SD”. Experiments were repeated 3 times, and representative data were shown.
Prior to tests, bacterial optical density at 600 nm (OD600) was adjusted to approximately 0.8-1.0. Protein LHD was added into the cell re-suspension with the final concentration of 100 μg/ml. The drop in OD600 at 37° C. was measured once per 20 minutes for 60 min. Bacterial re-suspension with sterile water was also set as a control. Experiments were repeated 3 times, and representative data were shown. […]

[2] = biological target: Clostridium difficile toxin B (TcdB) (Clostridioides difficile, UniProt P18177); assay: Inhibition of TcdB cytotoxicity in CT26 cells (cell rounding, non-glucosylated Rac1 Western blot); type: cell-based; conditions: pre-treatment 750 ng/ml 1 hr, TcdB 15 ng/ml 5 hrs
Chain of Clostridium difficile toxin B (TcdB) (P18177 whole entry): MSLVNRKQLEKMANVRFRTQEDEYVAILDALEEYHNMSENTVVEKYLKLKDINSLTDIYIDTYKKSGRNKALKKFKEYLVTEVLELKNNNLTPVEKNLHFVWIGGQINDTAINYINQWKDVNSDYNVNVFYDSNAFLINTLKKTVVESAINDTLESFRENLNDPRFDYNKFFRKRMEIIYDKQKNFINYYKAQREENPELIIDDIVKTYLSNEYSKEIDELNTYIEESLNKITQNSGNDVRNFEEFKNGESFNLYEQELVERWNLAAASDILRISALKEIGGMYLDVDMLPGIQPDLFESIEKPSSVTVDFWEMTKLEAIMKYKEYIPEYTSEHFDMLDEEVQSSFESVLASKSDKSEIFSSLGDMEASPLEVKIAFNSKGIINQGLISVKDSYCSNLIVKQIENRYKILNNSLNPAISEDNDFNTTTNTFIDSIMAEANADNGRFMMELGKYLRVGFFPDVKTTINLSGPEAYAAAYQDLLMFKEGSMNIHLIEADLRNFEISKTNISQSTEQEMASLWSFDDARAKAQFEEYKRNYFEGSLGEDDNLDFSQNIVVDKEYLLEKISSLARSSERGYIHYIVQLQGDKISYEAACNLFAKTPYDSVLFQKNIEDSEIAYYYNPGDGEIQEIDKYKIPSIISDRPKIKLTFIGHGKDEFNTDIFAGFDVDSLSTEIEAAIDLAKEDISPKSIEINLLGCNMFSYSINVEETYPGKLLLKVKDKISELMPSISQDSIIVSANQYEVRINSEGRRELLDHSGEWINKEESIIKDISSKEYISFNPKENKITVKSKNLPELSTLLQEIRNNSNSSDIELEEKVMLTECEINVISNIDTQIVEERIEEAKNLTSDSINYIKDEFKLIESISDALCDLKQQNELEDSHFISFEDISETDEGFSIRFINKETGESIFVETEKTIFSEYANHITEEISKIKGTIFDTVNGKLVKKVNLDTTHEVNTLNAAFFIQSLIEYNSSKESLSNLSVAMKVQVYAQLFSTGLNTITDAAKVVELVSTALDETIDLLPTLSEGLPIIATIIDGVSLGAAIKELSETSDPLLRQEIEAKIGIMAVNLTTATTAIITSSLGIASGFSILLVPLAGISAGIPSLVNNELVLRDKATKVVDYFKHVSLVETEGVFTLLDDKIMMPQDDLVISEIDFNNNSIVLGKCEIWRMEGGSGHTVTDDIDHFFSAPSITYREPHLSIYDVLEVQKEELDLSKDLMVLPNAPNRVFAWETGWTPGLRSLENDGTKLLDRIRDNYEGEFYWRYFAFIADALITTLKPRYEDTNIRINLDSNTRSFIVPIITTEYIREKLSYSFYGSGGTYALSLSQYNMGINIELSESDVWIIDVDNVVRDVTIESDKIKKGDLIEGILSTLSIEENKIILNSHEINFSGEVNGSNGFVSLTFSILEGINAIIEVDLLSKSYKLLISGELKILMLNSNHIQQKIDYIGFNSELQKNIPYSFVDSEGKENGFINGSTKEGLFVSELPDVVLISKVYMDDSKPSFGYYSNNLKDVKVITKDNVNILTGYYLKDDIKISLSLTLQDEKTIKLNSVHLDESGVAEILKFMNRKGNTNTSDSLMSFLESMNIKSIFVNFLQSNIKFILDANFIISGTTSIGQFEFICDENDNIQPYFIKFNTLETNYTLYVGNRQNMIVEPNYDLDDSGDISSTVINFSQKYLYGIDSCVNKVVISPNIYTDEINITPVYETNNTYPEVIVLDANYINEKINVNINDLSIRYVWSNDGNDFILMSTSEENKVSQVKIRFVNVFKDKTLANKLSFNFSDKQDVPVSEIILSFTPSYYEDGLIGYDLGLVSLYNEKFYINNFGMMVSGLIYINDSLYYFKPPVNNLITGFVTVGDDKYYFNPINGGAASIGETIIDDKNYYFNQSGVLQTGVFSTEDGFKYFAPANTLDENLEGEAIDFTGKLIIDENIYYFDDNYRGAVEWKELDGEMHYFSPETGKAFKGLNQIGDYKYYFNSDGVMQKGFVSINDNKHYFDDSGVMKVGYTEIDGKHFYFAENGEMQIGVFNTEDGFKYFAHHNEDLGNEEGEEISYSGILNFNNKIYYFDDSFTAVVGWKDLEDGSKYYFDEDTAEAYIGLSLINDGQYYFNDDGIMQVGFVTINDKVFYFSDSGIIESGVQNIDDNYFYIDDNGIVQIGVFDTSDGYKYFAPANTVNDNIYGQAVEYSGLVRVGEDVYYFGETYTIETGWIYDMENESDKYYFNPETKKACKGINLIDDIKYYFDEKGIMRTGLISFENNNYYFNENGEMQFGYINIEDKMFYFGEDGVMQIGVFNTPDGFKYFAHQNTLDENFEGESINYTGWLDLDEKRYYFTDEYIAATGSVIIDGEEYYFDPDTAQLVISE
Experimental: (FIG. 5A) LHD inhibits TcdB-induced cell rounding. CT26 cells in 12-well plates were exposed to HD or LHD at 750 ng/ml (50 times of TcdB concentration) or nothing for 1 hour, followed by exposure to TcdB at 15 ng/ml for 5 hours. (FIG. 5B) Western-blot analysis of non-glucosylated Rac1 in CT26 cells treated with TcdB in the presence or absence of LHD or HD. TcdB glucosylates Rac1 in cells, serving as a readout for toxin cytotoxicity. Quantitation of Rac1 levels in Western-blot was shown in low panel (*p<0.05). (FIG. 5C) CT26 cells were lysed, and the cytosolic fraction was exposed to TcdB (15 ng/ml) with or without HD at 750 ng/ml (50 times of TcdB concentration) or LHD at 1500 ng/ml (same molecular concentration as HD) or nothing for 1 h followed by Western Blot analysis using a monoclonal antibody that only recognizes non-glucosylated Rac1. β-actin was used as an equal loading control. Quantitation of Rac1 levels in Western-blot was shown in low panel (****p<0.0001).
It was reported that the human defensin protein HD5 (HD) could inhibit TcdB (Giesemann, Guttenberg et al. 2008). Therefore, we evaluated the inhibitory effects of LHD and HD on TcdB. Briefly, CT26 cells in 12-well plates were exposed to LHD, synthesized HD or PBS at 750 ng/ml (50 times of TcdB concentration) for 1 hr, followed by exposure to TcdB at 15 ng/ml for 5 hrs. Total cell lysates were subjected to 12% SDS-PAGE separation, and transferred onto a Nylon membrane. Following blocking for 1 hr at room temperature with 5% skim milk, the membrane was incubated overnight at 4° C. with RAC1 antibody (1:1000, Cat: 610650, BD Biosciences) and β-actin antibody (1:10000, Cat: A5441, Sigma-Aldrich).

C. difficile R20291 [3] = assay: Lytic activity of LHD after incubation with mouse intestinal contents; type: in vitro ADME; conditions: 37° C., 1 hr
Experimental: Protein LHD was incubated with mouse intestinal contents at 37° C. for 15, 30 or 60 minutes, then optical drop assays were performed on C. difficile R20291 to test the lytic activity of LHD at a concentration of 100 μg/ml. Experiments were repeated 3 times, and representative data were shown.
To appreciate the stability and activity of LHD in the mouse intestine, […] was incuated with freshly prepaerd mouse intestinal contents for 15 min, 30 min and 60 min, and retrived by centrifugation. Lytic activities of LHD treated with intestinal contents were determined on strain C. difficile R20291 as described above.

[4] = tested on: C. difficile strains M120, VPI 10463, CD630, LC693, 1377; assay: Optical drop assay, lytic activity on other clinical epidemic C. difficile strains; type: cell-based, Clostridium difficile
Text: C. difficile strains R20291 (ribotype 027), M120 (ribotype 078), VPI 10463 (ribotype 087; ATCC 43255), CD630 (ribotype 012), LC693 (ribotype unknown, ST201), and 1377 (ribotype 012) were used in this study. Strains M120 and VPI 10463 were provided by Dr. Joseph A. Sorg from Texas A&M University. Strains R20291 and CD630 were provided by Dr. Abraham L. Sonenshein from Tufts University. Strains 1377 and LC693 were epidemic clinical strains in China (Li, Liu et al. 2015, Peng, Liu et al. 2017).
The lytic activity of proteins LHD and LCD against C. difficile strains was determined as previously described (Wang, Euler et al. 2015). Briefly, C. difficile strains were cultured in an anaerobic chamber to mid-log phase, and the bacterial pellets were harvested by centrifugation at 3000×g for 5 min. Pellets were washed twice and re-suspended in sterilized ddH2O, and resuspensions were not buffered. Prior to tests, bacterial optical density at 600 nm (OD600) was adjusted to approximately 0.8-1.0. Proteins LHD and LCD were added into the cell re-suspension with the final concentration of 200 μg/ml. The drop in OD600 at 37° C. was measured every 10 minutes for 60 min˜90 min. Bacterial re-suspension with sterilized water was also set as a control. Three repeats were included in each test.

B1: LHD: Fusion of phage phiC2 lysin catalytic domain (LCD, 179aa), (GGGGS)3 linker and human alpha-defensin 5; SEQ ID NO:1 (protein)
chain: MKICITVGHSILKSGACTSADGVVNEYQYNKSLAPVLADTFRKEGHKVDVIICPEKQFKTKNEEKSYKIPRVNSGGYDLLIELHLNASNGQGKGSEVLYYSNKGLEYATRICDKLGTVFKNRGAKLDKRLYILNSSKPTAVLIESFFCDNKEDYDKAKKLGHEGIAKLIVEGVLNKNINGGGGSGGGGSGGGGSATCYCRTGRCATRESLSGVCEISGRLYRLCCR
**Q.** How did the “lytic activity at pH” value (C. difficile R20291 [1]; PH of 5, R20291) turn out when B1 was run?
**A.** partially active

**Q.** What about the “lytic activity at pH” value (C. difficile R20291 [1]; PHs of 2, 3, and 4, R20291) of the same molecule?
**A.** lost almost all activity

**Q.** And the “lytic activity at pH” value (C. difficile R20291 [1]; PHs of 6 and 7, 200 μg/ml, R20291)?
**A.** more efficiently

**Q.** And the “cell rounding caused by TcdB” value [2]?
**A.** decreased cell rounding; also recorded: comparable to human defensin peptide HD5

**Q.** What about the “non-glucosylated Rac1 in cells (readout of cytotoxicity of TcdB)” value [2] of the same molecule?
**A.** significant increase

**Q.** What about the “lytic activity after treatment with intestinal contents” value (C. difficile R20291 [3]) of the same molecule?
**A.** did not affect lytic activity

**Q.** What about the “lytic activity (drop in OD600)” value ([4]; different types of clinical epidemic strains, 200 μg/ml) of the same molecule?
**A.** potent lytic activities

**Q.** What about the “lytic activity compared with LCD” value ([4]; strain M120, p<0.05) of the same molecule?
**A.** more potent than LCD

**Q.** What about the “lytic activity compared with LCD” value ([4]; strains VP110463, CD630, LC693 and 1377) of the same molecule?
**A.** slightly more potent

From patent publication US12630596B2, “Engineered lysin-human defensin protein” (priority 2018, dated 2026)
